Where two headings read alike, the source gives them in different places. Marks after values point to notes of the source that are not given here.
Tests used:
[1] = tested on: weanling pigs fed high P diet; assay: Examples 4-8: cortical and cancellous bone ash and mineral profile; type: in vivo, pig; conditions: 8 wk
Method: (§1) As in Examples 1-3, the animal protocol was approved by Cornell Animal Care and Use Committee. An 8-week feeding trial was conducted at Cornell University Swine Research Farm. Thirty weanling pigs (Yorkshire×Hampshire×Landrace, body weight=8.6±0.5 kg) were allocated into three groups (n=10). […] were fed a corn-soy basal diet (BD)+0.25% inorganic phosphorus (iP, dicalcium phosphate). Group 2 were fed BD+0.35% iP. Group 3 were fed BD+0.35% iP+3,400 units of phytase/kg (Escherichia coli appA2, OptiPhos, JBS United, Inc., Sheridan, Ind.). The BD (Table 7) contained adequate levels of all nutrients except for P^(63), and 0.25% iP is the supplementation level recommended by NRC^(24) to meet the P needs of this age of pigs. […] Pigs were housed in an environmentally-controlled barn (20-25° C.; 12-light: 12-dark cycle), and given free access to feed and water.
After the above mechanical tests, midshaft sections of both femur and metacarpus were cut and washed with de-ionized water. The cortical thickness of both bones was measured by slide caliper in the midshaft. Cortical and cancellous bones were separated for total ash and mineral analysis. A 3-cm long and 3-mm thick midshaft of femur and 1-cm long and 1.5-mm thick midshaft of metacarpus were used for cortical ash analysis. For cancellous bone, sponge-like bone from 3-cm below the growth plate of femur and 1.5-cm below the growth plate of metacarpus were collected. For ash analysis, bones were oven-dried at 110° C. for 24 h, and incinerated in a muffle furnace at 550° C. for 96 h. Concentrations of individual elements in the ash were measured using inductively coupled argon plasma spectrophotometer (ICAP 61E Trace Analyzer, Thermo Jarell Ash corporation, Franklin, Mass.)^(63), and were expressed on ash basis.

[2] = tested on: weanling pigs fed high P diet; assay: Examples 4-8: radiographic bone density and metacarpal histomorphometry; type: in vivo, pig; conditions: 8 wk
Method: as §1
After the skin and major muscles were removed, two left legs were subjected to X-ray radiography using a Faxitron machine (Model 43855A; Hewlett Packard, McMinnville, Oreg., USA). Bone radiographs of femur and metacarpals were quantified by the kodac software. The software counted the total number of pixels. Thereafter, the 3rd and 4th metacarpals and femurs were collected to measure length, weight, height, and width after removing the remaining muscle and connective tissue. After the X-ray analysis, the two left legs were used for bone mechanical and mineral testing. Bone mechanical properties were determined by a three-point bending test (ASAE Standard S459 1992) using an Instron 4500 Machine Universal Testing Instrument (Model 1122, Instron, Canton, Mass.) with Instron Series IX Automated Materials Testing System Software (version 4.05). During testing, force was applied to the center of the bone held by supports 2.0 cm apart for metacarpals and 3.3 cm apart for femurs. The crosshead speed was set at 50 mm/min and the sampling rate was at 10 points/sec. The extrinsic parameters (stiffness/slope, maximum load, energy to break, maximum displacement) were derived from the force-displacement curve. Bone breaking strength was calculated with the adjustment of bone weight, and the average strength of the 3rd and 4th metacarpal was used as the metacarpal strength for each pig.
Metacarpals (4th) from right foot of pigs (n=5 for each group) were quickly fixed by 10% formalin for histology, decalcified, embedded in paraffin sagittally serially sectioned through the midline (8 μm), and stained with Masson's trichrome as previously described^(74). Variation of bone matrix mineralization was detected by modified tetrachrome method^(75). Sulfated proteoglycans were detected by alcian blue staining^(76) and counter staining with Mayer's acid haematoxylin. PCI software—CIMAGING System (Model 1280, Compix Inc., Cranberry, Pa.)—was applied to measure bone surface, osteoid, bone volume, trabecular thickness, number, and separation, and proteoglycans surface. Trabecular size and separation distances were measured by the software measurement scale. Trabecular numbers were counted within a specified field. For proteoglycans measurement, the total area of trabecular bone was first captured to define the region of interest (ROI). Then, within the ROI the blue color area of proteoglycans was captured and its area measured to define the object area. For osteoid measurement, the first cortical bone surface was the object. The area fraction of the deep green in the periosteal area was expressed as: Area fraction (%)=Object area/Region of interest (ROI)×100.

[3] = Expt 2, plasma, phytase 2000 U/kg and/or Sr 50 mg/kg
Method: Pigs were penned in an environmentally controlled barn (20-25° C.; 12 h light: 12 h dark cycle), and were allowed free access to feed and water.
Blood samples of individual pigs were collected at initial (wk 0) and then weekly from the anterior vena cava into heparinized tubes after an overnight fast (8 h). The collected whole blood samples were chilled on ice and centrifuged at 3,000×g (GS-6KR centrifuge, Beckman Instruments Inc.) for 10 min at 4° C. to prepare plasma for assays of inorganic P concentrations and alkaline phosphatase activity.
The hydrolysis of p-nitrophenol phosphate to p-nitrophenol was used to measure plasma alkaline phosphatase activity^(27). The enzyme unit was defined as 1 μmol of p-nitrophenol released per minute at 30° C.

[4] = 0.35% iP + Sr 50 mg/kg + phytase 3,400 U/kg, P<0.01
[5] = 0.35% iP + Sr 50 mg/kg + phytase 3,400 U/kg, P<0.001
[6] = phytase 3,400 U/kg into the 0.35% iP diet, P<0.001
[7] = phytase 3,400 U/kg into the 0.35% iP diet, P<0.05

B1: Phytase: Escherichia coli AppA2 phytase (OptiPhos, JBS United, Inc.), added to diets at feed mixing; AppA2 is SEQ ID NO: 2 (protein, listed as Escherichia coli)
chain: MKAILIPFLSLLIPLTPQSAFAQSEPELKLESVVIVSRHGVRAPTKATQLMQDVTPDAWPTWPVKLGWLTPRGGELIAYLGHYQRQRLVADGLLAKKGCPQPGQVAIIADVDERTRKTGEAFAAGLAPDCAITVHTQADTSSPDPLFNPLKTGVCQLDNANVTDAILSRAGGSIADFTGHRQTAFRELERVLNFSQLNLCLNREKQDESCSLTQALPSELKVSADNVSLTGAVSLASMLTEIFLLQQAQGMPEPGWGRITDSHQWNTLLSLHNAQFYLLQRTPEVARSRATPLLDLIMAALTPHPPQKQAYGVTLPTSVLFIAGHDTNLANLGGALELNWTLPGQPDNTPPGGELVFERWRRLSDNSQWIQVSLVFQTLQQMRDKTPLSLNTPPGEVKLTLAGCEERNAQGMCSLAGFTQIVNEARIPACSL
decrease of P concentration in cancellous bones, femur and metacarpus ([1]; 0.35% iP + Sr 50 mg/kg + phytase 3,400 U/kg): 22 to 31%
elevation of Sr concentration in cancellous bone, metacarpus ([1]; 0.35% iP + Sr 50 mg/kg + phytase 3,400 U/kg, P<0.002): 115 fold
enhancement of cancellous bone ash of femur [1, 4]: 12%
enhancement of cancellous bone ash of metacarpus [1, 4]: 5%
increase of total ash concentration of cortical bone, metacarpals [1, 4]: 3%
increase in Fe concentration of cancellous bone, femur ([1]; 0.35% iP + Sr 50 mg/kg + phytase 3,400 U/kg, P<0.05): 33%
Femur cancellous bone Ca ([1]; 0.35% iP + phytase 3400 U, n=5): 311.0^b g/Kg ash
Femur cancellous bone Cr ([1]; 0.35% iP + phytase 3400 U, n=5): 10.0 mg/kg ash
Femur cancellous bone Fe ([1]; 0.35% iP + phytase 3400 U, n=5): 75.6^a mg/kg ash
Femur cancellous bone Mg ([1]; 0.35% iP + phytase 3400 U, n=5): 6.0^b g/Kg ash
Femur cancellous bone Na ([1]; 0.35% iP + phytase 3400 U, n=5): 8.3^b g/Kg ash
Femur cancellous bone P ([1]; 0.35% iP + phytase 3400 U, n=5): 155.0^b g/Kg ash
Femur cancellous bone S ([1]; 0.35% iP + phytase 3400 U, n=5): 1833.2^b mg/kg ash
Femur cancellous bone Sr ([1]; 0.35% iP + phytase 3400 U, n=5): 93680.7^a mg/kg ash
Femur cancellous bone Zn ([1]; 0.35% iP + phytase 3400 U, n=5): 395.7^a mg/kg ash
Femur compact bone Ca ([1]; 0.35% iP + phytase 3400 U, n=5): 403.0 g/Kg ash
Femur compact bone Cr ([1]; 0.35% iP + phytase 3400 U, n=5): 12.6 mg/kg ash
Femur compact bone Fe ([1]; 0.35% iP + phytase 3400 U, n=5): 25.1 mg/kg ash
Femur compact bone Mg ([1]; 0.35% iP + phytase 3400 U, n=5): 7.6 g/Kg ash
Femur compact bone Na ([1]; 0.35% iP + phytase 3400 U, n=5): 9.4 g/Kg ash
Femur compact bone P ([1]; 0.35% iP + phytase 3400 U, n=5): 199.0 g/Kg ash
Femur compact bone S ([1]; 0.35% iP + phytase 3400 U, n=5): 649.9^b mg/kg ash
Femur compact bone Sr ([1]; 0.35% iP + phytase 3400 U, n=5): 568.8^b mg/kg ash
Femur compact bone Zn ([1]; 0.35% iP + phytase 3400 U, n=5): 278.8 mg/kg ash
Metacarpus cancellous bone Ca ([1]; 0.35% iP + phytase 3400 U, n=5): 329.0^b g/kg ash
Metacarpus cancellous bone Cr ([1]; 0.35% iP + phytase 3400 U, n=5): 10.7 mg/kg ash
Metacarpus cancellous bone Fe ([1]; 0.35% iP + phytase 3400 U, n=5): 66.4^a mg/kg ash
Metacarpus cancellous bone Mg ([1]; 0.35% iP + phytase 3400 U, n=5): 6.0 g/kg ash
Metacarpus cancellous bone Na ([1]; 0.35% iP + phytase 3400 U, n=5): 7.6^b g/kg ash
Metacarpus cancellous bone P ([1]; 0.35% iP + phytase 3400 U, n=5): 161.0^b g/kg ash
Metacarpus cancellous bone S ([1]; 0.35% iP + phytase 3400 U, n=5): 1334.5^b mg/kg ash
Metacarpus cancellous bone Sr ([1]; 0.35% iP + phytase 3400 U, n=5): 86221.0^a mg/kg ash
Metacarpus cancellous bone Zn ([1]; 0.35% iP + phytase 3400 U, n=5): 334.3 mg/kg ash
Metacarpus compact bone Ca ([1]; 0.35% iP + phytase 3400 U, n=5): 398.0 g/Kg ash
Metacarpus compact bone Cr ([1]; 0.35% iP + phytase 3400 U, n=5): 13.3 mg/kg ash
Metacarpus compact bone Fe ([1]; 0.35% iP + phytase 3400 U, n=5): 24.7 mg/kg ash
Metacarpus compact bone Mg ([1]; 0.35% iP + phytase 3400 U, n=5): 7.2 g/Kg ash
Metacarpus compact bone Na ([1]; 0.35% iP + phytase 3400 U, n=5): 8.6 g/Kg ash
Metacarpus compact bone P ([1]; 0.35% iP + phytase 3400 U, n=5): 195.0 g/Kg ash
Metacarpus compact bone S ([1]; 0.35% iP + phytase 3400 U, n=5): 763.8^b mg/kg ash
Metacarpus compact bone Sr ([1]; 0.35% iP + phytase 3400 U, n=5): 541.4^b mg/kg ash
Metacarpus compact bone Zn ([1]; 0.35% iP + phytase 3400 U, n=5): 307.7 mg/kg ash
increases in Sr concentration in cancellous bones of femur and metacarpus vs 0.35% iP ([1]; phytase 3,400 U/kg into the 0.35% iP diet): > 100 fold
improvement of femur bone density (radiograph image pixel numbers) vs 0.35% iP [2, 5]: 28%
improvement of metacarpus bone density (radiograph image pixel numbers) vs 0.35% iP [2, 5]: 20%
increase in metacarpal bone volume vs 0.35% iP [2, 5]: 38%
enhancement of osteoid thickness in the periosteal area [2, 6]: 60%
increase of sulfated proteoglycans in cancellous bone [2, 6]: 18%
decrease in trabecular separation, metacarpal bone [2, 7]: 37%
increase in trabecular density, metacarpal bone [2, 7]: 42%
increase in trabecular thickness, metacarpal bone [2, 7]: 51%
Alkaline phosphatase activity ([3]; week 0 (initial)): 202.1 U/L
Alkaline phosphatase activity ([3]; week 5 (final)): 149.9 U/L

— patent US8192734B2, “Compositions and methods for bone strengthening” (Cornell University, priority 2007, dated 2012)
